Test [1] is described as follows: Peracetic acid generation from hydroxyapatite bound CE-7 perhydrolase fusions (Example 8). Format: biochemical. As to conditions: for Peracetic acid (ppm): hydroxyapatite particles exposed to 10 μM enzyme, washed, 100 mM triacetin, 100 mM H2O2, 30 min, 37° C., no enzyme 30-118.8. The method, then:
(§1) The detection of peracetic acid followed the method described in Pinkernell et. al. (Analyst, 1997, 122, 567) using colorimetric detection of 2,2′-azino-bis(3-ethylbenzothiazoline(-6-sulfonate (ABTS) oxidation by peracetic acid. Following the formation of peracetic acid with the addition of triacetin and hydrogen peroxide, 90 μL of solution was added to 10 μL of 0.1 M H3PO4 in a well plate. 50 μL of 1 M acetic acid, 50 μL of 0.5 g/L ABTS and 50 μL of 0.002 g/L of KI was added. The solution was allowed to develop for 5 min. The absorbance of the solution was measured at 405 nm using a microplate reader. The peracetic acid concentration was calculated based on a standard curve developed simultaneously using peracetic acid reagent solution.
To assess binding of these constructs to hydroxyapatite, 33 mg of hydroxyapatite particles (Macro-prep Ceramic Hydroxyapatite TYPE I, 80 μm size BioRad, Hercules, Calif.), were washed with 10 mM phosphate buffer at pH 7.2. After removing the supernatant, enzyme stock solution was added to the hydroxyapatite dispersion to a final concentration of 10 μM and incubated for 30 min in a microcentrifuge tube with gentle agitation. Each sample was centrifuged for 1 min at 10000 rpm. The supernatant was removed and additional buffer was added. The particles were resuspended and transferred to a new tube. The process was repeated two additional times. The hydroxyapatite bound enzyme activity was measured by adding a 500 μl solution containing 100 mM triacetin, 100 mM H2O2 in 100 mM phosphate buffer, pH 7.2. The solution was incubated for 30 min, at 37° C. An aliquot was removed and mixed with H3PO4 and properly diluted for detection via ABTS oxidation as described in Example 7. The experiments were performed at different day with no enzyme as control for each experiment.

Test [2] is described as follows: Peracetic acid generated in solution by CE-7 perhydrolase fusions (Example 8). Format: biochemical. The following applies: 0.5 μM enzyme, 100 mM triacetin, 100 mM H2O2, pH 7.2, 10 min, 37° C.; no enzyme 378.9. The method, then:
as §1
Perhydrolase enzymes listed in Table 6 were assessed for solution activities. The method to measure the perhydrolase in solution activity was described in Example 7 by making a 500 μL solution containing 0.5 μM of enzyme, 100 mM triacetin, 100 mM H2O2 in 100 mM phosphate buffer, pH 7.2. The solution was mixed and incubated for 10 min at 37° C. A 10 μL aliquot was removed and diluted for detection as described in Example 7. Peracetic acid concentration was determined using a standard curve generated with a stock solution of peracetic acid (Aldrich). The experiment was also performed with no enzyme present as a control.

B1: EZ-29: Bpu-link1-DenP308-H6, SEQ ID NO: 453 (protein)
chain: MQLFDLSLEELKKYKPKKTARPDFSDFWKKSLEELRQVEAEPTLESYDYPVKGVKVYRLTYQSFGHSKIEGFYAVPDQTGPHPALVRFHGYNASYDGGIHDIVNWALHGYATFGMLVRGQGGSEDTSVTPGGHALGWMTKGILSKDTYYYRGVYLDAVRALEVIQSFPEVDEHRIGVIGGSQGGALAIAAAALSDIPKVVVADYPYLSNFERAVDVALEQPYLEINSYFRRNSDPKVEEKAFETLSYFDLINLAGWVKQPTLMAIGLIDKITPPSTVFAAYNHLETDKDLKVYRYFGHEFIPAFQTEKLSFLQKHLLLSTGPGSGGAGSPGSAGGPGSDPTKPPRTPTANTSRPHHNFGSGGGGSPHHHHHH
On to B1, for which the “Peracetic acid (ppm)” value in test [1] came to 1299.8 ppm. In test [1] (targeted vs untargeted B. pumilus fusion), the “activity after binding to hydroxyapatite (in words)” value is given as “higher binding activity compared to the untargeted EZ-27”. Besides, the “PAA (ppm)” value in test [2] came out at 2273.5 ppm.

B2: EZ-32: Mlo-link1-DenP308-H6, SEQ ID NO: 456 (protein)
chain: MPFPDLIQPELGAYVSSVGMPDDFAQFWTSTIAEARQAGGEVSIVQAQTTLKAVQSFDVTFPGYGGHPIKGWLILPTHHKGRLPLVVQYIGYGGGRGLAHEQLHWAASGFAYFRMDTRGQGSDWSVGETADPVGSTSSIPGFMTRGVLDKNDYYYRRLFTDAVRAIDALLGLDFVDPERIAVCGDSQGGGISLAVGGIDPRVKAVMPDVPFLCDFPRAVQTAVRDPYLEIVRFLAQHREKKAAVFETLNYFDCVNFARRSKAPALFSVALMDEVCPPSTVYGAFNAYAGEKTITEYEFNNHEGGQGYQERQQMTWLSRLFGVGGPGSGGAGSPGSAGGPGSDPTKPPRTPTANTSRPHHNFGSGGGGSPHHHHHH
On to B2, for which the “Peracetic acid (ppm)” value in test [1] was found to be 419.3 ppm. The “PAA (ppm)” value in test [2] is recorded as 497.7 ppm.

B3: EZ-33: Lla-link1-H6, SEQ ID NO: 457 (protein)
chain: MTKINNWQDYQGSSLKPEDFDKFWDEKINLVSNHQFEFELIEKNLSSKVVNFYHLWFTAIDGAKIHAQLIVPKNLKEKYPAILQFHGYHCDSGDWVDKIGIVAEGNVVLALDCRGQGGLSQDNIQTMGMTMKGLIVRGIDEGYENLYYVRQFMDLITATKILSEFDFVDETNISAQGASQGGALAVACAALSPLIKKVTATYPFLSDYRKAYELGAEESAFEELPYWFQFKDPLHLREDWFFNQLEYIDIQNLAPRIKAEVIWILGGKDTVVPPITQMAAYNKIQSKKSLYVLPEYGHEYLPKISDWLRENQGPGSGGAGSPGSAGGPGSHHHHHH
Regarding B3, the “Peracetic acid (ppm)” value in test [1] was 359.1 ppm. The “PAA (ppm)” value in test [2] is 1062.5 ppm.

B4: EZ-34: Lla-link1-HC263-H6, SEQ ID NO: 458 (protein)
chain: MTKINNWQDYQGSSLKPEDFDKFWDEKINLVSNHQFEFELIEKNLSSKVVNFYHLWFTAIDGAKIHAQLIVPKNLKEKYPAILQFHGYHCDSGDWVDKIGIVAEGNVVLALDCRGQGGLSQDNIQTMGMTMKGLIVRGIDEGYENLYYVRQFMDLITATKILSEFDFVDETNISAQGASQGGALAVACAALSPLIKKVTATYPFLSDYRKAYELGAEESAFEELPYWFQFKDPLHLREDWFFNQLEYIDIQNLAPRIKAEVIWILGGKDTVVPPITQMAAYNKIQSKKSLYVLPEYGHEYLPKISDWLRENQGPGSGGAGSPGSAGGPGSPSAQSQLPDKHSGLHERAPQRYGPEPEPEPEPIPEPPKEAPVVIEKPKPKPKPKPKPPAHDHKNQKETHQRHAAGSGGGGSPHHHHHH
In the case of B4, in test [1], the “Peracetic acid (ppm)” value is listed as 242.2 ppm. Besides, in test [2], the “PAA (ppm)” value worked out at 786 ppm.

B5: EZ-30: Mlo-link1-H6, SEQ ID NO: 454 (protein)
chain: MPFPDLIQPELGAYVSSVGMPDDFAQFWTSTIAEARQAGGEVSIVQAQTTLKAVQSFDVTFPGYGGHPIKGWLILPTHHKGRLPLVVQYIGYGGGRGLAHEQLHWAASGFAYFRMDTRGQGSDWSVGETADPVGSTSSIPGFMTRGVLDKNDYYYRRLFTDAVRAIDALLGLDFVDPERIAVCGDSQGGGISLAVGGIDPRVKAVMPDVPFLCDFPRAVQTAVRDPYLEIVRFLAQHREKKAAVFETLNYFDCVNFARRSKAPALFSVALMDEVCPPSTVYGAFNAYAGEKTITEYEFNNHEGGQGYQERQQMTWLSRLFGVGGPGSGGAGSPGSAGGPGSHHHHHH
As to B5, the “Peracetic acid (ppm)” value in test [1] is recorded as 658.5 ppm. Further, the “PAA (ppm)” value in test [2] came out at 468.8 ppm.

B6: EZ-31: Mlo-link1-HC263-H6, SEQ ID NO: 455 (protein)
chain: MPFPDLIQPELGAYVSSVGMPDDFAQFWTSTIAEARQAGGEVSIVQAQTTLKAVQSFDVTFPGYGGHPIKGWLILPTHHKGRLPLVVQYIGYGGGRGLAHEQLHWAASGFAYFRMDTRGQGSDWSVGETADPVGSTSSIPGFMTRGVLDKNDYYYRRLFTDAVRAIDALLGLDFVDPERIAVCGDSQGGGISLAVGGIDPRVKAVMPDVPFLCDFPRAVQTAVRDPYLEIVRFLAQHREKKAAVFETLNYFDCVNFARRSKAPALFSVALMDEVCPPSTVYGAFNAYAGEKTITEYEFNNHEGGQGYQERQQMTWLSRLFGVGGPGSGGAGSPGSAGGPGSPSAQSQLPDKHSGLHERAPQRYGPEPEPEPEPIPEPPKEAPVVIEKPKPKPKPKPKPPAHDHKNQKETHQRHAAGSGGGGSPHHHHHH
Turning to B6, in test [1], the “Peracetic acid (ppm)” value came out at 241.4 ppm. Further, in test [2], the “PAA (ppm)” value was found to be 434.9 ppm.

B7: EZ-35: Lla-link1-DenP308-H6, SEQ ID NO: 459 (protein)
chain: MTKINNWQDYQGSSLKPEDFDKFWDEKINLVSNHQFEFELIEKNLSSKVVNFYHLWFTAIDGAKIHAQLIVPKNLKEKYPAILQFHGYHCDSGDWVDKIGIVAEGNVVLALDCRGQGGLSQDNIQTMGMTMKGLIVRGIDEGYENLYYVRQFMDLITATKILSEFDFVDETNISAQGASQGGALAVACAALSPLIKKVTATYPFLSDYRKAYELGAEESAFEELPYWFQFKDPLHLREDWFFNQLEYIDIQNLAPRIKAEVIWILGGKDTVVPPITQMAAYNKIQSKKSLYVLPEYGHEYLPKISDWLRENQGPGSGGAGSPGSAGGPGSDPTKPPRTPTANTSRPHHNFGSGGGGSPHHHHH
B7: the “Peracetic acid (ppm)” value in test [1] turned out to be 260 ppm. The “PAA (ppm)” value in test [2] amounted to 998 ppm.

B8: EZ-27: Bpu-link1-H6, SEQ ID NO: 451 (protein)
chain: MQLFDLSLEELKKYKPKKTARPDFSDFWKKSLEELRQVEAEPTLESYDYPVKGVKVYRLTYQSFGHSKIEGFYAVPDQTGPHPALVRFHGYNASYDGGIHDIVNWALHGYATFGMLVRGQGGSEDTSVTPGGHALGWMTKGILSKDTYYYRGVYLDAVRALEVIQSFPEVDEHRIGVIGGSQGGALAIAAAALSDIPKVVVADYPYLSNFERAVDVALEQPYLEINSYFRRNSDPKVEEKAFETLSYFDLINLAGWVKQPTLMAIGLIDKITPPSTVFAAYNHLETDKDLKVYRYFGHEFIPAFQTEKLSFLQKHLLLSTGPGSGGAGSPGSAGGPGSHHHHHH
Turning to B8, the “Peracetic acid (ppm)” value in test [1] came to 634.9 ppm. In addition, the “PAA (ppm)” value in test [2] is on record as 2332.9 ppm.

B9: EZ-28: Bpu-link1-HC263-H6, SEQ ID NO: 452 (protein)
chain: MQLFDLSLEELKKYKPKKTARPDFSDFWKKSLEELRQVEAEPTLESYDYPVKGVKVYRLTYQSFGHSKIEGFYAVPDQTGPHPALVRFHGYNASYDGGIHDIVNWALHGYATFGMLVRGQGGSEDTSVTPGGHALGWMTKGILSKDTYYYRGVYLDAVRALEVIQSFPEVDEHRIGVIGGSQGGALAIAAAALSDIPKVVVADYPYLSNFERAVDVALEQPYLEINSYFRRNSDPKVEEKAFETLSYFDLINLAGWVKQPTLMAIGLIDKITPPSTVFAAYNHLETDKDLKVYRYFGHEFIPAFQTEKLSFLQKHLLLSTGPGSGGAGSPGSAGGPGSPSAQSQLPDKHSGLHERAPQRYGPEPEPEPEPIPEPPKEAPVVIEKPKPKPKPKPKPPAHDHKNQKETHQRHAAGSGGGGSPHHHHHH
Turning to B9, the “Peracetic acid (ppm)” value in test [1] came to 534.2 ppm. For the same molecule, in test [2], the “PAA (ppm)” value amounted to 2512.7 ppm.

Values taken from patent US8663616B2, “Enzymatic peracid generation for use in oral care products” (E I du Pont de Nemours and Company, priority 2010, dated 2014).
